# Source: the supplement of paper PMC9732359
# ± gives the uncertainty stated by the source.
# Experiment: protein stability index of a GFP-peptide fusion (yeast GPS) (PSI 1-4); higher = more stable; sorted into four equal gates, so the index is relative within each strain
# Procedure, shortened: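 Each library plasmid carries Cherry plus GFP with a tiled 17-residue yeast protein peptide fused downstream, and the pooled library was carried in yeast. Mid-log cultures in leucine-free medium were sorted into four equal gates by GFP/Cherry ratio. Reads from Illumina sequencing of PCR-amplified plasmids from each gate were assigned to strains by barcodes. Per peptide, the protein stability index was computed as the summed products of gate read frequency and gate number.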
sequence,measurement,setting,value
VIFLSSLLTLVGSVTYQ [YJL039C/NUP192],protein stability index,doa10∆,1.39 ± 0.14
same,protein stability index,pdr5∆,1.21 ± 0.14
same,protein stability index,san1∆,1.14 ± 0.28
same,protein stability index,ubr1∆,1.2 ± 0.13
VIQDEVLAHRIGLVPLK [RPC40],protein stability index,doa10∆,2.94 ± 0.27
VIRDSVTYTEHAKRKTV [HHF1],protein stability index,doa10∆,1.8 ± 0.081
same,protein stability index,pdr5∆,1.4 ± 0.074
same,protein stability index,san1∆,1.44 ± 0.12
same,protein stability index,ubr1∆,2.03 ± 0.051
VISSGPLAAGNFVSEKG [RPC53],protein stability index,doa10∆,2.81 ± 0.093
same,protein stability index,pdr5∆,3.13 ± 0.11
same,protein stability index,san1∆,3.14 ± 0.094
same,protein stability index,ubr1∆,2.48 ± 0.078
VIYRGPEPSHIDQVMMS [RET1],protein stability index,doa10∆,3.01 ± 0.085
same,protein stability index,pdr5∆,3.23 ± 0.13
same,protein stability index,san1∆,3.19 ± 0.067
same,protein stability index,ubr1∆,2.77 ± 0.088
VKADVEKSLLPKIETNV [ISW2],protein stability index,doa10∆,3.03 ± 0.086
same,protein stability index,pdr5∆,3.18 ± 0.074
same,protein stability index,san1∆,3.11 ± 0.062
same,protein stability index,ubr1∆,2.92 ± 0.088
VKDWLYDSRPLEEDSKK [PRP8],protein stability index,doa10∆,2.95 ± 0.19
same,protein stability index,pdr5∆,2.91 ± 0.24
same,protein stability index,san1∆,2.8 ± 0.12
VKEIVLPLFYDLLNAAS [IRR1],protein stability index,doa10∆,2.36 ± 0.045
same,protein stability index,pdr5∆,2.48 ± 0.052
same,protein stability index,san1∆,2.78 ± 0.036
same,protein stability index,ubr1∆,2.69 ± 0.049
VKKGPVRLPTKVLKIST [RPS20],protein stability index,doa10∆,2.22 ± 0.062
same,protein stability index,pdr5∆,2.22 ± 0.085
same,protein stability index,san1∆,2.54 ± 0.058
same,protein stability index,ubr1∆,2.37 ± 0.064
VKLTYNSPSSALRALQE [YDL088C/ASM4],protein stability index,doa10∆,2.42 ± 0.058
same,protein stability index,pdr5∆,2.44 ± 0.066
same,protein stability index,san1∆,2.62 ± 0.088
same,protein stability index,ubr1∆,2.03 ± 0.038
VKPHDEGSKSHPFGHAL [RPL27A],protein stability index,doa10∆,2.95 ± 0.064
same,protein stability index,pdr5∆,2.97 ± 0.053
same,protein stability index,san1∆,2.88 ± 0.08
same,protein stability index,ubr1∆,3.1 ± 0.047
VKPQYDEIHIPAPSKPV [BRR2],protein stability index,doa10∆,2.59 ± 0.097
same,protein stability index,pdr5∆,2.59 ± 0.12
same,protein stability index,san1∆,2.41 ± 0.084
same,protein stability index,ubr1∆,1.83 ± 0.093
VKQYNKKWPQFYAAVQK [SIN4],protein stability index,doa10∆,1.49 ± 0.15
same,protein stability index,pdr5∆,1.93 ± 0.1
same,protein stability index,san1∆,1.55 ± 0.1
same,protein stability index,ubr1∆,1.68 ± 0.047
VKRRRDMLEHINLAMNE [SRB4],protein stability index,doa10∆,1.3 ± 0.096
same,protein stability index,pdr5∆,1.33 ± 0.12
same,protein stability index,san1∆,1.14 ± 0.19
same,protein stability index,ubr1∆,1.2 ± 0.078
VKVSAAAGKANKQFAKF [RPS11A],protein stability index,doa10∆,2.64 ± 0.081
same,protein stability index,pdr5∆,2.88 ± 0.074
same,protein stability index,san1∆,2.85 ± 0.065
same,protein stability index,ubr1∆,2.93 ± 0.044
VLAAQSIGEPATQMTLN [RPO21],protein stability index,doa10∆,2.69 ± 0.055
same,protein stability index,pdr5∆,3 ± 0.051
same,protein stability index,san1∆,2.87 ± 0.042
same,protein stability index,ubr1∆,2.91 ± 0.048
VLAGDTRNITDYSINSR [PRE7],protein stability index,doa10∆,2.93 ± 0.09
same,protein stability index,pdr5∆,3.29 ± 0.075
same,protein stability index,san1∆,3.22 ± 0.061
same,protein stability index,ubr1∆,3.24 ± 0.058
VLAQYHEAKERIRQKEV [SNF6],protein stability index,ubr1∆,3.4 ± 0.18
VLCLTRSSYMLELVNTP [YCG1],protein stability index,doa10∆,1.58 ± 0.059
same,protein stability index,pdr5∆,2.03 ± 0.2
same,protein stability index,san1∆,1.77 ± 0.099
same,protein stability index,ubr1∆,1.98 ± 0.087
VLDHQRAIPFRRFNSSI [RPL17A],protein stability index,doa10∆,2.69 ± 0.095
same,protein stability index,pdr5∆,2.39 ± 0.14
same,protein stability index,san1∆,1.67 ± 0.15
same,protein stability index,ubr1∆,1.4 ± 0.13
VLFITPDIVGHEFTLSF [BRR2],protein stability index,doa10∆,1.87 ± 0.049
same,protein stability index,pdr5∆,2.29 ± 0.049
same,protein stability index,san1∆,2.18 ± 0.055
same,protein stability index,ubr1∆,2.3 ± 0.04
VLGIKVKIMRDPAKSRT [RPS3],protein stability index,doa10∆,2.67 ± 0.067
same,protein stability index,pdr5∆,2.78 ± 0.054
same,protein stability index,san1∆,2.98 ± 0.049
same,protein stability index,ubr1∆,3.16 ± 0.037
VLKSHSNDFEEGSTIRY [YMR129W/POM152],protein stability index,doa10∆,2.44 ± 0.075
same,protein stability index,pdr5∆,2.8 ± 0.099
same,protein stability index,san1∆,2.93 ± 0.067
same,protein stability index,ubr1∆,2.88 ± 0.068
VLNMLYWVPDWDGVIPT [RPO21],protein stability index,doa10∆,2.92 ± 0.067
same,protein stability index,pdr5∆,2.63 ± 0.066
same,protein stability index,san1∆,2.92 ± 0.055
same,protein stability index,ubr1∆,3.16 ± 0.038
VLPIFTTVFFSRQKSGL [YML031W/NDC1],protein stability index,doa10∆,1.53 ± 0.075
same,protein stability index,pdr5∆,1.24 ± 0.082
same,protein stability index,san1∆,1.14 ± 0.095
same,protein stability index,ubr1∆,1.11 ± 0.077
VLQPLLPRELPKLLDAL [SNU114],protein stability index,doa10∆,2.15 ± 0.072
same,protein stability index,pdr5∆,2.2 ± 0.11
same,protein stability index,san1∆,2.73 ± 0.11
same,protein stability index,ubr1∆,2.6 ± 0.096
VLRLRGALVDRTQPWSI [RPS0A],protein stability index,doa10∆,2.65 ± 0.086
same,protein stability index,pdr5∆,2.44 ± 0.072
same,protein stability index,san1∆,2.52 ± 0.067
same,protein stability index,ubr1∆,3.08 ± 0.031
VLSDQVGSEKVLQDLRL [YJL039C/NUP192],protein stability index,doa10∆,3.12 ± 0.2
VLSIPPANHLQSDFCLS [YGL100W/SEH1],protein stability index,doa10∆,2.94 ± 0.11
same,protein stability index,pdr5∆,2.44 ± 0.1
same,protein stability index,san1∆,2.52 ± 0.11
same,protein stability index,ubr1∆,2.59 ± 0.044
VLSLGRPNLPTHNFKLS [RGR1],protein stability index,doa10∆,3.04 ± 0.17
VLTAAGVERLIFYPDEY [PRE3],protein stability index,doa10∆,2.78 ± 0.11
same,protein stability index,pdr5∆,2.94 ± 0.093
same,protein stability index,san1∆,2.9 ± 0.074
same,protein stability index,ubr1∆,2.95 ± 0.11
VLVSMGSSNKAVVQTVK [YJL039C/NUP192],protein stability index,doa10∆,1.33 ± 0.26
same,protein stability index,pdr5∆,1.5 ± 0.15
same,protein stability index,ubr1∆,1.34 ± 0.19
VMPVPNVRSSVLQKVIE [SKP1],protein stability index,doa10∆,2.33 ± 0.05
same,protein stability index,pdr5∆,2.43 ± 0.052
same,protein stability index,san1∆,2.38 ± 0.052
same,protein stability index,ubr1∆,2.35 ± 0.045
VMRNTYNTRKNAVTAAA [GAL11],protein stability index,doa10∆,1.78 ± 0.045
same,protein stability index,pdr5∆,1.94 ± 0.051
same,protein stability index,san1∆,2.11 ± 0.07
same,protein stability index,ubr1∆,1.97 ± 0.036
VMWGKVTRTHGNSGVVR [RPL33A],protein stability index,doa10∆,2.83 ± 0.071
same,protein stability index,pdr5∆,2.94 ± 0.075
same,protein stability index,san1∆,2.97 ± 0.051
same,protein stability index,ubr1∆,2.98 ± 0.07
VNAITVAQQQVQRQIEQ [SNF5],protein stability index,pdr5∆,3.14 ± 0.2
same,protein stability index,ubr1∆,3 ± 0.17
VNCLELLINTNFNKFFK [PCI8],protein stability index,doa10∆,1.77 ± 0.045
same,protein stability index,pdr5∆,1.88 ± 0.048
same,protein stability index,san1∆,1.96 ± 0.065
same,protein stability index,ubr1∆,1.99 ± 0.064
VNDNDERAARVVKGRVE [RPO31],protein stability index,doa10∆,3.17 ± 0.16
same,protein stability index,pdr5∆,3.36 ± 0.15
same,protein stability index,san1∆,3.15 ± 0.25
same,protein stability index,ubr1∆,3.4 ± 0.091
VNDVELAFKKNEMLLKR [MTW1],protein stability index,doa10∆,3.24 ± 0.19
same,protein stability index,pdr5∆,3.46 ± 0.14
same,protein stability index,san1∆,3.4 ± 0.14
same,protein stability index,ubr1∆,3.11 ± 0.066
VNECIAQSHQRFNAKVS [CDC53],protein stability index,doa10∆,2.15 ± 0.039
same,protein stability index,pdr5∆,2.6 ± 0.043
same,protein stability index,san1∆,2.64 ± 0.054
same,protein stability index,ubr1∆,2.3 ± 0.027
VNEMNDQLAQELKDLET [NNF1],protein stability index,doa10∆,2.9 ± 0.23
same,protein stability index,san1∆,3.27 ± 0.12
VNGLLQVLMDINTLNGG [GAL11],protein stability index,doa10∆,2.98 ± 0.079
same,protein stability index,pdr5∆,3.03 ± 0.077
same,protein stability index,san1∆,3 ± 0.075
same,protein stability index,ubr1∆,2.91 ± 0.036
VNQEFIFEAISLSDELN [YJL039C/NUP192],protein stability index,doa10∆,2.71 ± 0.071
same,protein stability index,pdr5∆,2.65 ± 0.067
same,protein stability index,san1∆,2.63 ± 0.051
same,protein stability index,ubr1∆,2.75 ± 0.058
VNSIALFVGTDRQLHEI [RPN14],protein stability index,doa10∆,2.43 ± 0.079
same,protein stability index,pdr5∆,2.46 ± 0.065
same,protein stability index,san1∆,2.25 ± 0.067
same,protein stability index,ubr1∆,2.67 ± 0.074
VPKEGLFYFDSSFRPCP [BRR2],protein stability index,doa10∆,3.17 ± 0.068
same,protein stability index,pdr5∆,3.28 ± 0.058
same,protein stability index,san1∆,3.38 ± 0.046
same,protein stability index,ubr1∆,3.14 ± 0.039
VPKLESSRTKFWSFLDS [YJL039C/NUP192],protein stability index,doa10∆,1.61 ± 0.29
same,protein stability index,san1∆,1.61 ± 0.13
same,protein stability index,ubr1∆,1.44 ± 0.096
VPLAMGIVSVSDPQMKV [RPN1],protein stability index,doa10∆,1.39 ± 0.041
same,protein stability index,pdr5∆,1.63 ± 0.054
same,protein stability index,san1∆,1.43 ± 0.1
same,protein stability index,ubr1∆,1.51 ± 0.051
VPNSSDQAELPNNASSH [SNF2],protein stability index,doa10∆,2.26 ± 0.13
same,protein stability index,pdr5∆,2.85 ± 0.21
same,protein stability index,ubr1∆,2.74 ± 0.16
VPPILIILPLDNATLTE [SSN2],protein stability index,doa10∆,2.97 ± 0.1
same,protein stability index,pdr5∆,2.71 ± 0.11
same,protein stability index,san1∆,2.58 ± 0.16
same,protein stability index,ubr1∆,2.51 ± 0.087
VPSHVPQVLINRDPVKH [SIR2],protein stability index,doa10∆,2.52 ± 0.13
same,protein stability index,pdr5∆,3 ± 0.088
same,protein stability index,san1∆,3.06 ± 0.12
same,protein stability index,ubr1∆,2.76 ± 0.098
VPSYIHVEKERASTELS [YIL149C/MLP2],protein stability index,doa10∆,2.33 ± 0.1
same,protein stability index,pdr5∆,2.46 ± 0.069
same,protein stability index,san1∆,2.76 ± 0.084
same,protein stability index,ubr1∆,2.77 ± 0.054
VPTGGASSAAAGAAGAA [RPP2B],protein stability index,doa10∆,2.88 ± 0.11
same,protein stability index,pdr5∆,3.04 ± 0.083
same,protein stability index,san1∆,3.17 ± 0.07
same,protein stability index,ubr1∆,2.97 ± 0.1
